This is an account of results in the supplement of paper PMC7877785.

± gives the uncertainty stated by the source.

The data set in a line: self-splicing fitness, log relative to wild type (ln ratio); higher = more splicing; Tetrahymena group I intron in knt gene, E. coli kanamycin selection, DiMSum; sequences stand for … in CUCUCU…GGAGGGAAAAGUUAUCAGGCAUGCACCUGGUAGCUAGUCUUUAAACCAAUAGAUUGCAUCGGUUUAAAAGGCAAGACCGUCAAAUUGCGGGAAAGGGGUCAACAGCCGUUCAGUACCAAGUCUCAGGGGAAACUUUGAGAUGGCCUUGCAAAGGGUAUGGUAAUAAGCUGACGGACAUGGUCCUAACCACGCAGCCAAGUCCUAAGUCAACAGAUCUUCUGUUGAUAUGGAUGCAGUUCACAGACUAAAUGUCGGUCGGGGAAGAUGUAUUCUUCUCAUAAGAUAUAGUCGGACCUCUCCUUAAUGGGAGCUAGCGGAUGAAGUGAUGCAACACUGGAGCCGCUGGGAACUAAUUUGUAUGCGAAAGUAUAUUGAUUAGUUUUGGAGUACUCGUGGUCG
In outline:
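Pooled colonies went to amplicon sequencing on an Illumina HiSeq 2500 after six replicate transformations. The plates were LB agar with 100 μg/mL carbenicillin, 50 μM IPTG and 0.2% rhamnose, with or without 25 μg/mL kanamycin, incubated overnight at 37°C or 30°C. The E. coli BL21(DE3) library had all eight P1ex-region intron nucleotides randomised, the intron placed in the knt kanamycin-resistance gene on pET-22b(+). DiMSum fitness is the error-weighted combination of replicate fold changes, kanamycin against none, normalised to wild type.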

Regarding CUUAAGCAAUAUUACGUGCC, the “self-splicing fitness (ln)” value (30 °C) was -4.6 ± 0.38 and the “self-splicing fitness (ln)” value (37 °C) was -1.53 ± 0.18.
The like results for GGACAGCAAUAUUACGGGCU were, in that order, -1.89 ± 0.14 and -0.458 ± 0.13.
Consider CGUUAGCAAUAUUACGAAAA, for which the “self-splicing fitness (ln)” value reads like this: (30 °C) -2.76 ± 0.49; (37 °C) -1.83 ± 0.3.
The like results for GCCUAGCAAUAUUACGUAAC were, in that order, -0.911 ± 0.17 and -0.248 ± 0.2.
The like results for AUCAAGCAAUAUUACGAGCU were, in that order, -1.24 ± 0.084 and -0.596 ± 0.1.
GCGGAGCAAUAUUACGCAAC: where the note is “30 °C”, the “self-splicing fitness (ln)” value was -2.35 ± 0.48.
In the case of CCCGAGCAAUAUUACGAUCG, the “self-splicing fitness (ln)” value (30 °C) is -3.58 ± 0.32 and the “self-splicing fitness (ln)” value (37 °C) is -2.71 ± 0.41.
The corresponding values for CAGGAGCAAUAUUACGAUAA are -3.33 ± 0.2 and -1.88 ± 0.16.
In the case of UUUCAGCAAUAUUACGUAUG, the “self-splicing fitness (ln)” value runs as follows: (30 °C) -0.689 ± 0.081; (37 °C) -0.635 ± 0.11.
The like results for ACCCAGCAAUAUUACGACUG were, in that order, -2.87 ± 0.23 and -2.72 ± 0.41.
The like results for CACGAGCAAUAUUACGGACG were, in that order, -1.34 ± 0.075 and -0.15 ± 0.1.
AAUAAGCAAUAUUACGGACG: the “self-splicing fitness (ln)” value was -0.851 ± 0.15 (30 °C) and -0.397 ± 0.15 (37 °C).
The like results for CCCUAGCAAUAUUACGGCAA were, in that order, -3.66 ± 0.22 and -3.15 ± 0.18.
The like results for GCACAGCAAUAUUACGCGAU were, in that order, -2.12 ± 0.16 and -1.55 ± 0.15.
On to CUGCAGCAAUAUUACGGGCU, for which the “self-splicing fitness (ln)” value (30 °C) is -4.01 ± 0.17 and the “self-splicing fitness (ln)” value (37 °C) is -1.81 ± 0.17.
The corresponding values for CUCAAGCAAUAUUACGAGUG are -2.91 ± 0.11 and -1.41 ± 0.086.
The like results for CUUCAGCAAUAUUACGAGCU were, in that order, -3.82 ± 0.29 and -3.41 ± 0.33.
For the sequence CCAAAGCAAUAUUACGUUAG, the “self-splicing fitness (ln)” value runs as follows: (30 °C) -1.89 ± 0.071; (37 °C) -0.652 ± 0.073.
In the case of GGUCAGCAAUAUUACGGACC, the “self-splicing fitness (ln)” value is -3.67 ± 0.18 (30 °C) and -2.08 ± 0.22 (37 °C).
Consider CCAAAGCAAUAUUACGACUA, for which the “self-splicing fitness (ln)” value was -2.34 ± 0.23 (30 °C) and -2.7 ± 0.29 (37 °C).
Turning to UGUAAGCAAUAUUACGGAUU, the “self-splicing fitness (ln)” value by setting is: (30 °C) -2.59 ± 0.12; (37 °C) -1.09 ± 0.12.
The corresponding values for CAGUAGCAAUAUUACGAAAG are -0.623 ± 0.099 and -0.726 ± 0.14.
The corresponding values for CCAGAGCAAUAUUACGACCU are -2.54 ± 0.23 and -3.29 ± 0.39.
Turning to CAGCAGCAAUAUUACGCGUA, the “self-splicing fitness (ln)” value was -1.87 ± 0.083 (30 °C) and -1.05 ± 0.075 (37 °C).
The like results for AAGCAGCAAUAUUACGUGUU were, in that order, -3.31 ± 0.1 and -1.65 ± 0.089.
Regarding CGCUAGCAAUAUUACGAGAA, the “self-splicing fitness (ln)” value (37 °C) was -1.99 ± 0.29.
As to ACGGAGCAAUAUUACGUAAG, the “self-splicing fitness (ln)” value was -3.18 ± 0.2 (30 °C) and -1.82 ± 0.24 (37 °C).
CCCAAGCAAUAUUACGCCUU: the “self-splicing fitness (ln)” value (30 °C) is -3.04 ± 0.16 and the “self-splicing fitness (ln)” value (37 °C) is -2.88 ± 0.21.
As to CGACAGCAAUAUUACGCGGA, the “self-splicing fitness (ln)” value by setting is: (30 °C) -2.18 ± 0.12; (37 °C) -1.9 ± 0.089.
Regarding UUAUAGCAAUAUUACGUUCA, the “self-splicing fitness (ln)” value is -0.931 ± 0.15 (30 °C) and 0.00672 ± 0.15 (37 °C).
As for GUGGAGCAAUAUUACGCAGU, the “self-splicing fitness (ln)” value was -2.88 ± 0.18 (30 °C) and -2.58 ± 0.31 (37 °C).
The corresponding values for CAUUAGCAAUAUUACGUAUA are -2.34 ± 0.14 and -0.81 ± 0.12.
The like results for AGAGAGCAAUAUUACGAGUU were, in that order, -4.21 ± 0.3 and -2.41 ± 0.2.
The corresponding values for GAGUAGCAAUAUUACGGGGC are -2.79 ± 0.28 and -1.98 ± 0.33.
On to AUAGAGCAAUAUUACGGAUC, for which the “self-splicing fitness (ln)” value is, setting by setting: (30 °C) -2.96 ± 0.3; (37 °C) -2.14 ± 0.31.
Take UCCAAGCAAUAUUACGUGUU: the “self-splicing fitness (ln)” value reads like this: (30 °C) -3.46 ± 0.15; (37 °C) -1.85 ± 0.13.
The like results for AUUUAGCAAUAUUACGAAGU were, in that order, -1.91 ± 0.23 and -1.24 ± 0.18.
Take GCAUAGCAAUAUUACGCGAC: the “self-splicing fitness (ln)” value is, setting by setting: (30 °C) -2.79 ± 0.16; (37 °C) 0.0921 ± 0.13.
For UUUUAGCAAUAUUACGGAUG, the “self-splicing fitness (ln)” value is, setting by setting: (30 °C) -1.12 ± 0.22; (37 °C) 0.2 ± 0.15.
The like results for CUCUAGCAAUAUUACGGCUA were, in that order, -2.32 ± 0.26 and -1.28 ± 0.24.
For the sequence GAUCAGCAAUAUUACGAAUA, the “self-splicing fitness (ln)” value reads like this: (30 °C) -0.747 ± 0.11; (37 °C) -0.471 ± 0.15.
The corresponding values for GAGAAGCAAUAUUACGUCCG are -1.48 ± 0.091 and -0.864 ± 0.1.
In the case of ACUUAGCAAUAUUACGGGAC, the “self-splicing fitness (ln)” value was -3.61 ± 0.19 (30 °C) and -2.03 ± 0.17 (37 °C).
The like results for AAAAAGCAAUAUUACGUUAC were, in that order, -2.57 ± 0.14 and -1.91 ± 0.15.
The corresponding values for AUAUAGCAAUAUUACGCAUA are -2.02 ± 0.26 and -0.946 ± 0.26.
Regarding GCUAAGCAAUAUUACGUAAA, the “self-splicing fitness (ln)” value reads like this: (30 °C) -0.877 ± 0.068; (37 °C) -0.32 ± 0.091.
The corresponding values for CAUAAGCAAUAUUACGUCAG are -1.26 ± 0.13 and 0.389 ± 0.15.
The like results for GUUUAGCAAUAUUACGCAUA were, in that order, -1.69 ± 0.18 and -1.19 ± 0.19.
For CUGCAGCAAUAUUACGAUUC, the “self-splicing fitness (ln)” value (37 °C) was -2.05 ± 0.2.
Take GAUCAGCAAUAUUACGUCCA: the “self-splicing fitness (ln)” value is -0.96 ± 0.18 (30 °C) and -0.173 ± 0.17 (37 °C).
Regarding CGCUAGCAAUAUUACGAGUC, the “self-splicing fitness (ln)” value is -1.8 ± 0.13 (30 °C) and -1.01 ± 0.15 (37 °C).
The like results for UGAGAGCAAUAUUACGCGUG were, in that order, -2.82 ± 0.24 and 0.21 ± 0.21.
As for CGAGAGCAAUAUUACGGAAU, the “self-splicing fitness (ln)” value runs as follows: (30 °C) -3.06 ± 0.19; (37 °C) -3.23 ± 0.42.
The corresponding values for GCCUAGCAAUAUUACGCGUC are -1.92 ± 0.15 and -0.202 ± 0.12.
Consider GCCAAGCAAUAUUACGACGG, for which the “self-splicing fitness (ln)” value (30 °C) was -3.8 ± 0.23 and the “self-splicing fitness (ln)” value (37 °C) is -2.55 ± 0.21.
The corresponding values for AUCAAGCAAUAUUACGGUCU are -1.54 ± 0.11 and -0.196 ± 0.095.
With AUGCAGCAAUAUUACGAAGG, the “self-splicing fitness (ln)” value is -3.78 ± 0.37 (30 °C) and -2.89 ± 0.41 (37 °C).
The like results for UCAGAGCAAUAUUACGACGG were, in that order, -0.865 ± 0.14 and 0.304 ± 0.18.
The like results for GCAAAGCAAUAUUACGUAGU were, in that order, -2.09 ± 0.11 and -1.14 ± 0.15.
The like results for GUCCAGCAAUAUUACGGUUC were, in that order, -0.386 ± 0.049 and 0.219 ± 0.065.
CCUAAGCAAUAUUACGGUCC: the “self-splicing fitness (ln)” value (37 °C) is -2.28 ± 0.45.
For the sequence ACUCAGCAAUAUUACGGCAG, the “self-splicing fitness (ln)” value was -1.52 ± 0.089 (30 °C) and -0.501 ± 0.093 (37 °C).
The like results for CCUGAGCAAUAUUACGUAGG were, in that order, -2.55 ± 0.15 and -2.24 ± 0.32.
The like results for UUUAAGCAAUAUUACGUCUA were, in that order, -0.606 ± 0.085 and -0.214 ± 0.1.
Turning to CCGGAGCAAUAUUACGAAUU, the “self-splicing fitness (ln)” value (37 °C) is -3.26 ± 0.3.
As to ACGGAGCAAUAUUACGCUAC, the “self-splicing fitness (ln)” value was -3.07 ± 0.33 (30 °C) and -2.06 ± 0.39 (37 °C).
The like results for ACGAAGCAAUAUUACGCUGG were, in that order, -1.07 ± 0.098 and -0.428 ± 0.11.
For GAAAAGCAAUAUUACGACGA, the “self-splicing fitness (ln)” value is, setting by setting: (30 °C) -0.234 ± 0.09; (37 °C) -0.0451 ± 0.096.
The corresponding values for GGAAAGCAAUAUUACGAAUA are -2.36 ± 0.22 and -1.19 ± 0.19.
CUACAGCAAUAUUACGUCCA: the “self-splicing fitness (ln)” value reads like this: (30 °C) -3.07 ± 0.25; (37 °C) -1.3 ± 0.24.
For the sequence CAUCAGCAAUAUUACGAGAA, the “self-splicing fitness (ln)” value by setting is: (30 °C) -2.12 ± 0.21; (37 °C) -2.09 ± 0.18.
The corresponding values for GUCUAGCAAUAUUACGAAAA are -2.3 ± 0.26 and -1.26 ± 0.22.
As to AUCCAGCAAUAUUACGGAAU, the “self-splicing fitness (ln)” value was -2.94 ± 0.13 (30 °C) and -1.91 ± 0.17 (37 °C).
Consider ACAGAGCAAUAUUACGACGU, for which the “self-splicing fitness (ln)” value was -1.31 ± 0.091 (30 °C) and -0.557 ± 0.11 (37 °C).
Regarding AUCGAGCAAUAUUACGUGCC, the “self-splicing fitness (ln)” value runs as follows: (30 °C) -2.52 ± 0.2; (37 °C) -2.22 ± 0.32.
On to AACAAGCAAUAUUACGCUGG, for which the “self-splicing fitness (ln)” value reads like this: (30 °C) -2.25 ± 0.081; (37 °C) -1.04 ± 0.1.
